From article PMC11374805

Target: peptidase domain (PD) of human ACE2 (human) (UniProt Q9BYF1)
Assay: BLI

“RBD (319-541 a.a) of S protein from SARS-CoV-2 Omicron variant BA.2 (domain or fragment)” gave a Kd of 16 nM.
